The target of one data set is T1, Tim-Tipin complex (mouse, UniProt Q9R1X4;Q91WA1 1-1134;1-278).
T1 sequence 1: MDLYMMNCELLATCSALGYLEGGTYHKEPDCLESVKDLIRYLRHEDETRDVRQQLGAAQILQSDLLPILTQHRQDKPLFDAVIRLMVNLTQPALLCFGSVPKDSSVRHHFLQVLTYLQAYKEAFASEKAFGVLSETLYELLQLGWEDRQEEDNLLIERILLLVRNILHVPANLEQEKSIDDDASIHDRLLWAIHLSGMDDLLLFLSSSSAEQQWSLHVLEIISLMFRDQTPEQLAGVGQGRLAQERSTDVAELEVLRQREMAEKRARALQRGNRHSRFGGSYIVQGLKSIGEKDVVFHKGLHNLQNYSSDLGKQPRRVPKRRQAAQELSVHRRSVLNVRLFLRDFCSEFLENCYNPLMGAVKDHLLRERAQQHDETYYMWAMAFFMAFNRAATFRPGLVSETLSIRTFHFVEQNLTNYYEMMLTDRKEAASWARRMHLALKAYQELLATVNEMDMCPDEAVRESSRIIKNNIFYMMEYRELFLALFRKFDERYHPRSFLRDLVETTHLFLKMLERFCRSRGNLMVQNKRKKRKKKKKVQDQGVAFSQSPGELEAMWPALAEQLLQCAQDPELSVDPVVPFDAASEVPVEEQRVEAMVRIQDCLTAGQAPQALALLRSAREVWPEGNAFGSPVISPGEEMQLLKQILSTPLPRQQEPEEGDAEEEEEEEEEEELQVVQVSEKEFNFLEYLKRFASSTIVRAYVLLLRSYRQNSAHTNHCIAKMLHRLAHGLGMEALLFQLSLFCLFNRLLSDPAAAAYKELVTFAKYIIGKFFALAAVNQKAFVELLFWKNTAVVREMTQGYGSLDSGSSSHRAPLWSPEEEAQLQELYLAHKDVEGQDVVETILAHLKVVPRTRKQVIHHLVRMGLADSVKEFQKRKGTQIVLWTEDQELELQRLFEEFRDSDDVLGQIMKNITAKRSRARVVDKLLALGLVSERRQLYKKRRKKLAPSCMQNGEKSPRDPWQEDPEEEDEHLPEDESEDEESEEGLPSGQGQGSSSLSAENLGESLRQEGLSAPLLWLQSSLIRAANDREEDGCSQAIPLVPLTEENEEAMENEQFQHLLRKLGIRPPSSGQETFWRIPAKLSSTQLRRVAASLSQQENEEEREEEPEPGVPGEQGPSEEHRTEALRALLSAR
T1 sequence 2: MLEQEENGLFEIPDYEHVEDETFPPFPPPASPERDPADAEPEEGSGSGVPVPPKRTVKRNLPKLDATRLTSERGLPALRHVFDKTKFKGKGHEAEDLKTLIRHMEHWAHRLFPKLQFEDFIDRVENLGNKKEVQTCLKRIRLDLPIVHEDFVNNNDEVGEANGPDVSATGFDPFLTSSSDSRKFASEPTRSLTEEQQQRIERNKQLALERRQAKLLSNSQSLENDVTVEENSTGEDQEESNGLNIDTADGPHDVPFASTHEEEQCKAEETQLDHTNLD
Kind of data set: fluorescence anisotropy; Hill n = 1.2 ± 0.2; 30 C; 20 mM Hepes pH 7.5, 125 mM NaCl, 2 mM DTT, 0.01 mM zinc acetate (Buffer A); EMSA 15 min RT + 15 min 4 C; FA 15 min 30 C, 10 nM DNA. The conditions noted are these: protein: recombinant; tags: His (Tim) and His-GST (Tipin), cleaved with 3C; copies: 1;1; label: 5'-FAM.

In data set [1] the target is RPA70/32/14 (RPA70ABC/32D-WH/14) (mouse, UniProt Q8VEE4;Q99KL9;Q9CQ71 190-623;43-270;1-121). Kind of data set: EMSA; 1 RPA with excess DNA, up to 2 RPA at substoichiometric DNA; 20 mM Hepes pH 7.5, 125 mM NaCl, 2 mM DTT, 0.01 mM zinc acetate (Buffer A); EMSA 15 min RT + 15 min 4 C; FA 15 min 30 C, 10 nM DNA. The conditions noted are these: protein: recombinant; tags: His; copies: 1;1;1; label: 5'-FAM. For orientation: Mobility shift assays separate free from complexed probe on a gel.
Sequence of RPA70/32/14 (RPA70ABC/32D-WH/14) (Q8VEE4 190-623, chain 1 of 3): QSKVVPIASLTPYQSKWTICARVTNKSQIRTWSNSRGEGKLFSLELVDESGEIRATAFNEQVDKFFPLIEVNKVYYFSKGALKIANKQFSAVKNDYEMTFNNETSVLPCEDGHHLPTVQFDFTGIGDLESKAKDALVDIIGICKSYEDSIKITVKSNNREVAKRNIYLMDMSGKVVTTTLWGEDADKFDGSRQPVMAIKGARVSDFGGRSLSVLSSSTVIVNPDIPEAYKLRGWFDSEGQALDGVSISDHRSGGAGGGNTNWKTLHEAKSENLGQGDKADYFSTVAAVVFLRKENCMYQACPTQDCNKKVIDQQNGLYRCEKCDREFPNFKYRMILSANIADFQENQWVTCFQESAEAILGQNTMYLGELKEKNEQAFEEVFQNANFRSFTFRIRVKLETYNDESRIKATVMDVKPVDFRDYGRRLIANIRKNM
Sequence of RPA70/32/14 (RPA70ABC/32D-WH/14) (chain, as listed by the source, chain 2 of 3): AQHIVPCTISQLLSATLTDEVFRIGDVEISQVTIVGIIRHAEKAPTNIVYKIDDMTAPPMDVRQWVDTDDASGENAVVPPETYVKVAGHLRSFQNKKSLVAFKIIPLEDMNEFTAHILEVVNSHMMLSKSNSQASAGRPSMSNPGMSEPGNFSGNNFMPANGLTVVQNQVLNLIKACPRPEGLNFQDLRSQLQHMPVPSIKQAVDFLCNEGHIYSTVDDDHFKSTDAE
Sequence of RPA70/32/14 (RPA70ABC/32D-WH/14) (Q9CQ71 whole entry, chain 3 of 3): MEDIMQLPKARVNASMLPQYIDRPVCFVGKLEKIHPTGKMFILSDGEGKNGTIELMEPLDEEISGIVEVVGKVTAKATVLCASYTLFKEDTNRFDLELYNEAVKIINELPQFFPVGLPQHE

For the molecule ACGCTGCCGAATTCTACCAGTGCCTTGCTA (ssDNA) [30 nt FAM ssDNA], the Kd (usually the concentration at which binding is half-saturated) in the data set with Tim-Tipin complex was 1700 ± 200 nM. The binding result in data set [1] was “binds”.

These data come from PMC4227788, “Architecture and ssDNA interaction of the Timeless-Tipin-RPA complex” (Nucleic Acids Research, 2014).
